Laboratory results published in patent US20250127915A1 (SHANGHAI JUNSHI BIOSCIENCES, published 2025).
Numbering of substitutions follows the chain as printed.

B1: ADC-4-MMAE (antibody, human IgG1, kappa, V domains shown)
VH: EVQLVESGGGLVQPGGSLRLSCAASGFTLNNFGMHWVRQAPGKGLEWVSSISSGSGTIYYADSVKGRFTISRDNPKNSLYLQMNSLRAEDTAVYYCARAYYGNGFSFWGQGTLVTVSS
VL: DIVMTQSPDSLAVSLGERATINCKSSQSLLNSGNQKNYLTWYQQKPGQPPKLLIYWASTRESGVPDRFSGSGSGTDFTLTISSLQAEDVAVYYCQNVYSYPLTFGQGTKLEIKR
modifications: MC-VC-PAB-MMAE (vc-MMAE) coupled after TCEP reduction of the antibody; positions not given; DAR 4.55
notes: also called JS107-4-MMAE
B2: JS012-Chi9-hu7 (antibody, human IgG1, kappa, V domains shown)
VH: QIQLVQSGSELKKPGESVKVSCKASGYTFTNYGMNWVRQAPGQGLEWMGWINTYTGESTYADGFTGRFVFSSDTSARTAYLQISSLKAEDTAVYFCATLGYGNSLAYWGQGTLVTVSS
VL: B1 VL with K36R, V97N, S99F, L102F
notes: also called JS107-3; JS012-chi9-hu07
B3: JS012-Chi2-hu2-v3-2a (antibody, human IgG1, kappa, V domains shown)
VH: B1 VH
VL: B1 VL
notes: also called JS107-5
B4: JS012-Chi2-hu2-v3-2 (antibody, human IgG1, kappa, V domains shown)
VH: B1 VH
VL: B1 VL
notes: also called JS107-4
B5: ADC-5-MMAE (antibody, human IgG1, kappa, V domains shown)
VH: B1 VH
VL: B1 VL
modifications: MC-VC-PAB-MMAE (vc-MMAE) coupled after TCEP reduction of the antibody; positions not given; DAR 4.1
notes: also called JS107-5-MMAE
B6: ADC-3-MMAE (antibody, V domains shown)
VH: B2 VH
VL: B1 VL with K36R, V97N, S99F, L102F
modifications: MC-VC-PAB-MMAE (vc-MMAE) coupled after TCEP reduction of the antibody; positions not given; DAR 3.97
notes: also called JS107-3-MMAE
B7: ADC-4-MMAF (antibody, human IgG1, kappa, V domains shown)
VH: B1 VH
VL: B1 VL
modifications: MC-MMAF coupled after TCEP reduction of the antibody; positions not given; DAR 3.85
notes: also called JS107-4-MMAF

target: T1, human CLDN-18.2 (human, UniProt P56856 1-261); experiment: flow cytometry on NUGC4-CLDN-18.2 cells overexpressing human CLDN-18.2, 4 °C 30 min, fluorescent secondary antibody, MFI-PE
T1 construct: also called Claudin18.2
Description: Finally, the fluorescence intensity was detected by BD CantoII flow cytometer. […] The antibody dose-dependent binding curve was fitted by GraphPad (FIGS. 1a-1d) and EC50 was calculated. The positive controls were the corresponding monoclonal antibodies, and the negative control was anti-KLH IgG1.

First: B1
Second: B2
The EC50 of the first is 7.6-fold lower: 0.495 µg/mL for the first, 3.76 µg/mL for the second.

First: B3
Second: B4
The EC50 of the first is 4.8-fold lower: 0.347 µg/mL for the first, 1.65 µg/mL for the second.

Going from B5 to B6, the EC50 rises from 0.23 µg/mL to 2.96 µg/mL (13-fold).

B7 was tested, and the EC50 was 1.21 µg/mL.

target: T1, human CLDN-18.2; experiment: cell-based or functional assay

Going from B1 to B6, the “EC50 of endocytosis (MFI-APC of CypHer5E-labelled conjugate in NUGC4-CLDN-18.2 cells, 37 °C 4 h, FACS)” value falls from 2.67 µg/mL to 0.937 µg/mL (2.8-fold).

For B7, the “EC50 of endocytosis (MFI-APC of CypHer5E-labelled conjugate in NUGC4-CLDN-18.2 cells, 37 °C 4 h, FACS)” value was 1.61 µg/mL.

target: T1, human CLDN-18.2; experiment: cell-based or functional assay; remark: another data set of the same source

B3 was tested, and the “EC50 of endocytosis (MFI-APC of CypHer5E-labelled antibody in NUGC4-CLDN-18.2 cells, 37 °C 4 h, FACS)” value was 58.8 µg/mL.

B5 was tested, and the “EC50 of endocytosis (MFI-APC of CypHer5E-labelled conjugate in NUGC4-CLDN-18.2 cells, 37 °C 4 h, FACS)” value was 21.8 µg/mL.

target: T1, human CLDN-18.2; experiment: cell-based or functional assay; remark: another data set of the same source

B1 and B6 are within 1.5-fold of each other in “IC50 of inhibition of NUGC4-CLDN-18.2 cells proliferation (Cell titer Glo, 48 h)” value: 11 ng/mL for the first, 12.7 ng/mL for the second.

B7 was tested, and the “IC50 of inhibition of NUGC4-CLDN-18.2 cells proliferation (Cell titer Glo, 48 h)” value was 9.36 ng/mL.
